From patent US20230372484A1 (VOR BIOPHARMA, published 2023)

B1: CD33-CAR3 (other)
chain: QVQLVQSGAEVKKPGSSVKVSCKASGYTFTDYNMHWVRQAPGQGLEWIGYIYPYNGGTGYNQKFKSKATITADESTNTAYMELSSLRSEDTAVYYCARGRPAMDYWGQGTLVTVSSGGGGSGGGGSGGGGSDIQMTQSPSSLSASVGDRVTITCRASESVDNYGISFMNWFQQKPGKAPKLLIYAASNQGSGVPSRFSGSGSGTDFTLTISSLQPDDFATYYCQQSKEVPWTFGQGTKVEIKSGAAAIEVMYPPPYLDNEKSNGTIIHVKGKHLCPSPLFPGPSKPFWVLVVVGGVLACYSLLVTVAFIIFWVRSKRSRLLHSDYMNMTPRRPGPTRKHYQPYAPPRDFAAYRSRVKFSRSADAPAYQQGQNQLYNELNLGRREEYDVLDKRRGRDPEMGGKPRRKNPQEGLYNELQKDKMAEAYSEIGMKGERRRGKGHDGLYQGLSTATKDTYDALHMQALPPRGS
B2: CD33-CAR7 (other)
chain: MELGLSWVVLAALLQGVQAQVQLVQPGGSLRLFCVASEEFFSIYAMGWYRQAPGKQHEMVARFTRDGKITYADSAKGRFTITRDAKNTLNLQMNGLIPEDTAVYYCNINHYWGQGTQVTVSSAAATTTPAPRPPTPAPTIASQPLSLRPEACRPAAGGAVHTRGLDFACDIYIWAPLAGTCGVLLLSLVITLYCKRGRKKLLYIFKQPFMRPVQTTQEEDGCSCRFPEEEEGGCELRVKFSRSADAPAYQQGQNQLYNELNLGRREEYDVLDKRRGRDPEMGGKPRRKNPQEGLYNELQKDKMAEAYSEIGMKGERRRGKGHDGLYQGLSTATKDTYDALHMQALPPR
B3: CD33-CAR6 (other)
chain: QVQLVETGGGLVRAGGSLRLSCAASGRTADIYNIGWFRQAPGKEREFVAAITWIGRTPYYADAVKGRFAFSTDSAKNTVSLQMDNLKPEDTGVYYCNAAHYLEGNTDYYWGQGTQVTVSSAAATTTPAPRPPTPAPTIASQPLSLRPEACRPAAGGAVHTRGLDFACDIYIWAPLAGTCGVLLLSLVITLYCKRGRKKLLYIFKQPFMRPVQTTQEEDGCSCRFPEEEEGGCELRVKFSRSADAPAYQQGQNQLYNELNLGRREEYDVLDKRRGRDPEMGGKPRRKNPQEGLYNELQKDKMAEAYSEIGMKGERRRGKGHDGLYQGLSTATKDTYDALHMQALPPR
B4: CD33-CAR5 (other)
chain: QVKLEESGGGSVQAGESLRLSCTASGITFRDYDIDWYRQAPGKEREWLATITPSGTTHYPDSVKGRATISRDSAKNTVYLQMNSLKPEDTARYECNTLAYWGSGTQVTVSSAAATTTPAPRPPTPAPTIASQPLSLRPEACRPAAGGAVHTRGLDFACDIYIWAPLAGTCGVLLLSLVITLYCKRGRKKLLYIFKQPFMRPVQTTQEEDGCSCRFPEEEEGGCELRVKFSRSADAPAYQQGQNQLYNELNLGRREEYDVLDKRRGRDPEMGGKPRRKNPQEGLYNELQKDKMAEAYSEIGMKGERRRGKGHDGLYQGLSTATKDTYDALHMQALPPR
B5: CD33-CAR4 (other)
chain: EVQLVQSGAEVKKPGSSVKVSCKASGYTITDSNIHWVRQAPGQSLEWIGYIYPYNGGTDYNQKFKNRATLTVDNPTNTAYMELSSLRSEDTAFYYCVNGNPWLAYWGQGTLVTVSSGGGGSGGGGSGGGGSDIQLTQSPSTLSASVGDRVTITCRASESLDNYGIRFLTWFQQKPGKAPKLLMYAASNQGSGVPSRFSGSGSGTEFTLTISSLQPDDFATYYCQQTKEVPWSFGQGTKVEVKRTSSGAAAIEVMYPPPYLDNEKSNGTIIHVKGKHLCPSPLFPGPSKPFWVLVVVGGVLACYSLLVTVAFIIFWVRSKRSRLLHSDYMNMTPRRPGPTRKHYQPYAPPRDFAAYRSRVKFSRSADAPAYQQGQNQLYNELNLGRREEYDVLDKRRGRDPEMGGKPRRKNPQEGLYNELQKDKMAEAYSEIGMKGERRRGKGHDGLYQGLSTATKDTYDALHMQALPPRGS

What follows are binders tested against CD33 (UniProt P20138 18-364, limits assumed) (assay: cell-based or functional assay).
CD33, sequence (P20138 18-364 limits assumed): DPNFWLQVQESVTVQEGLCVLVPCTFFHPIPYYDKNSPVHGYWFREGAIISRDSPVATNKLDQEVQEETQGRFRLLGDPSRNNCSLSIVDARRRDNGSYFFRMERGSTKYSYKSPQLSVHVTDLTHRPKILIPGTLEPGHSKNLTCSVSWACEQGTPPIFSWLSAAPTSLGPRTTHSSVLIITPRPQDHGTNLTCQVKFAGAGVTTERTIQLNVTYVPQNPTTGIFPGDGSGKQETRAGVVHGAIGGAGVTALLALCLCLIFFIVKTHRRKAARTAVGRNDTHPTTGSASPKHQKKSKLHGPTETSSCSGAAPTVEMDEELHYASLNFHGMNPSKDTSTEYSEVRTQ

Row | Ratio (NFAT-inducible reporter with wild-type MOLM-13 relative to MOLM-13 CD33KO) [ratio] | Testing FP2 Expression (CD33+) | Binder
1 | 1.44 | 3.9 % of constitutive-fluorescence-positive cells | B1
2 | 1.98 | 17.6 % of constitutive-fluorescence-positive cells | B2
3 | 3.6 | 22.9 % of constitutive-fluorescence-positive cells | B3
4 | 8.5 | 28.2 % of constitutive-fluorescence-positive cells | B4
5 | 2.41 | 4.14 % of constitutive-fluorescence-positive cells | B5
